Results published in US9051581B2, “Defense peptides against fungal infection and method of their use” (The Curators of the University of Missouri, priority 2010, dated 2015).

B1: ZmCKX1: recombinant maize cytokinin oxidase scaffold without peptide insert, control (protein)
chain: LAAGTPALGDDRGRPWPASLAALALDGKLRTDSNATAAASTDFGNITSALPAAVLYPSSTGDLVALLSAANSTPGWPYTIAFRGRGHSLMGQAFAPGGVVVNMASLGDAAAPPRINVSADGRYVDAGGEQVWIDVLRASLARGVAPRSWNDYLYLTVGGTLSNAGISGQAFRHGPQISNVLEMDVITGHGEMVTCSKQLNADLFDAVLGGLGQFGVITRARIAVEPAPARARWVRFVYTDFAAFSADQERLTAPRPGGGGASFGPMSYVEGSVFVNQSLATDLANTGFFTDADVARIVALAGERNATTVYSIEATLNYDNATAAAAAVDQELASVLGTLSYVEGFAFQRDVAYAAFLDRVHGEEVALNKLGLWRVPHPWLNMFVPRSRIADFDRGVFKGILQGTDIVGPLIVYPLNKSMWDDGMSAATPSEDVFYAVSLLFSSVAPNDLARLQEQNRRILRFCDLAGIQYKTYLARHTDRSDWVRHFGAAKWNRFVEMKNKYDPKRLLSPGQDIFN
B2: ZmCKX1-Sp39: peptide Sp39 fused to the C-terminus of the scaffold protein ZmCKX1, expressed in Pichia pastoris (protein)
chain: LAAGTPALGDDRGRPWPASLAALALDGKLRTDSNATAAASTDFGNITSALPAAVLYPSSTGDLVALLSAANSTPGWPYTIAFRGRGHSLMGQAFAPGGVVVNMASLGDAAAPPRINVSADGRYVDAGGEQVWIDVLRASLARGVAPRSWNDYLYLTVGGTLSNAGISGQAFRHGPQISNVLEMDVITGHGEMVTCSKQLNADLFDAVLGGLGQFGVITRARIAVEPAPARARWVRFVYTDFAAFSADQERLTAPRPGGGGASFGPMSYVEGSVFVNQSLATDLANTGFFTDADVARIVALAGERNATTVYSIEATLNYDNATAAAAAVDQELASVLGTLSYVEGFAFQRDVAYAAFLDRVHGEEVALNKLGLWRVPHPWLNMFVPRSRIADFDRGVFKGILQGTDIVGPLIVYPLNKSMWDDGMSAATPSEDVFYAVSLLFSSVAPNDLARLQEQNRRILRFCDLAGIQYKTYLARHTDRSDWVRHFGAAKWNRFVEMKNKYDPKRLLSPGQDIFNYNKPSFQDHSVI
B3: ZmCKX1-Sp2: peptide Sp2 fused to the C-terminus of the scaffold protein ZmCKX1, expressed in Pichia pastoris (protein)
chain: LAAGTPALGDDRGRPWPASLAALALDGKLRTDSNATAAASTDFGNITSALPAAVLYPSSTGDLVALLSAANSTPGWPYTIAFRGRGHSLMGQAFAPGGVVVNMASLGDAAAPPRINVSADGRYVDAGGEQVWIDVLRASLARGVAPRSWNDYLYLTVGGTLSNAGISGQAFRHGPQISNVLEMDVITGHGEMVTCSKQLNADLFDAVLGGLGQFGVITRARIAVEPAPARARWVRFVYTDFAAFSADQERLTAPRPGGGGASFGPMSYVEGSVFVNQSLATDLANTGFFTDADVARIVALAGERNATTVYSIEATLNYDNATAAAAAVDQELASVLGTLSYVEGFAFQRDVAYAAFLDRVHGEEVALNKLGLWRVPHPWLNMFVPRSRIADFDRGVFKGILQGTDIVGPLIVYPLNKSMWDDGMSAATPSEDVFYAVSLLFSSVAPNDLARLQEQNRRILRFCDLAGIQYKTYLARHTDRSDWVRHFGAAKWNRFVEMKNKYDPKRLLSPGQDIFNMLESHAWPPRAI

How the values were obtained:
[1] = test system: 20 kDa Phakopsora pachyrhizi protein; test: Far-western assay for P. pachyrhizi proteins that bind the peptides; assay type: binding; settings: protein from germinated urediniospores; bait protein, ZmCKX1 antibody detection
Experimental: A far-western assay was used to identify P. pachyrhizi proteins that bind to the disclosed peptides (3, 35). To prepare fungal proteins, MOS-2008 urediniospores were germinated and grown for 4 h. Fungal tissues were ground in liquid nitrogen and suspended in phosphate buffer (pH. 6.5) containing 0.1 M mannitol and Tween-20. Fungal debris was separated from soluble material by centrifugation, and the protein concentration of the soluble fraction was determined. Equal amounts of protein were loaded into the wells of an acrylamide gel, separated by SDS-PAGE, and then transferred to PVDF membrane. The membranes were incubated with a bait protein that consisted of the ZmCKX1 scaffold alone, ZmCKX1-Sp2, or ZmCKX1-Sp39. The unbound bait proteins were washed off of the blot, and the blot was incubated with ZmCKX1 polyclonal antibody (1), followed by a second antibody, anti-rabbit IgG conjugated to alkaline phosphatase (Promega, Madison, Wis.).

[2] = test system: Phakopsora pachyrhizi urediniospores; test: In vitro inhibition of urediniospore germ tube growth by ZmCKX1-peptides; assay type: cell-based; settings: for decrease of germ tube growth in comparison to water: 230 μM (highest concentration); for decrease of germ tube growth in comparison to water / reduction of average germ tube length in comparison to water: 8 h incubation; for reduction of average germ tube length in comparison to water: 58 μM
Experimental: Purified ZmCKX1-Sp2 and ZmCKX1-Sp39 peptides were assessed in vitro for the ability to inhibit urediniospore germination. A 25-μl water droplet containing 300 freshly harvested MOS-2008 urediniospores was incubated on a glass slide in the presence of either ZmCKX1-Sp2 or ZmCKX1-Sp39. Control treatments included urediniospores incubated in water or in the presence of ZmCKX1 alone. Germ tube growth was visualized over time and quantified by image capture and analyses as described previously.

[3] = test system: Phakopsora pachyrhizi urediniospores; test: Inhibition of soybean leaf infection (rust lesion formation) by ZmCKX1-peptides; assay type: in vivo; settings: 7 days of incubation; 115 μM; water close to 50%
Experimental: Young, fully expanded leaves were excised from soybean plants (Williams 82) and used for assessment of ZmCKX1-peptide inhibition. Two 10-μl droplets of each ZmCKX1-peptide-urediniospore mixture or control treatment were applied to the upper surface of a single leaf. Each droplet contained 50 urediniospores mixed with either ZmCKX1-Sp2 or ZmCKX1-Sp39 at a final concentration of 115 μM. Control treatments included urediniospores in water or mixed with 115 μM ZmCKX1. Droplet treatments were replicated four times.
Inoculated leaves were incubated for 8 h before rinsing away droplets and drying as described previously. Leaves were transferred to sealed Petri dishes and incubated in a growth chamber at 22° C. and 90% RH, under a 12 h light/dark cycle. The percentage of inoculations that produced rust lesions was recorded at 3 to 4 day intervals for 27 days.

Molecule | detection of fungal protein band in far-western blot [1] | decrease of germ tube growth in comparison to water [2] [%] | germ tube growth inhibition ([2]; all concentrations except 230 μM, 8 h) | reduction of average germ tube length in comparison to water [2] [%] | inoculations that produced lesions [3] [%]
B1 | absent | 26 | less than 10% |  | 
B2 | specifically interacted with a fungal protein approximately 20 kDa in size | 91 |  | 36 | 16
B3 | specifically interacted with a fungal protein approximately 20 kDa in size | 94 |  | 52 | 13
